In patent US20030124121A1 (IMMUNEX, published 2003):

Assays:
human IL-4 receptor [1] = target: T1, human IL-4 receptor (human, UniProt P24394 26-232, limits assumed); assay: hybridoma identification; assay not described
T1 construct: extracellular domain is 1 to 207 or -2 to 207 in that numbering; also called huIL-4R; IL-4Ralpha

human IL-4 receptor [2] = target: T1, human IL-4 receptor; assay: assay not described
human IL-4 receptor [3] = target: T1, human IL-4 receptor; assay: hybridoma screen for human gamma/kappa specific to IL-4R
Text: The mouse was sacrificed, and spleen cells were extracted and fused with the murine myeloma cell line P3x63Ag8.653 (ATCC CRL 1580). A conventional PEG fusion protocol was followed. The fusion was screened for HuIgG and HuKappa, followed by a rescreen for human gamma and kappa specific to IL-4R. […] Techniques for altering (switching) the subclass/isotype of an antibody are known. […] Sequence information for a human IgG4 heavy chain is presented, for example, in Ellison et al. (DNA Vol. 1, no. 1, pp 11-18, 1981), which is hereby incorporated by reference herein.

B1: MAb 27A1 (antibody, IgG1, V domains shown)
VH: QVQLVESGGGVVQPGRSLRLSCSASGFTFSRYGMHWVRQAPGRGLEWVAIIWFEGNNQYYADSVKGRFTVSRDNSKNTLYLEMNSLRAEDTAVYYCARGKYYFDYWGQGTLVTVSS
VL: not shown
notes: Fully human antibody
binding result (human IL-4 receptor [1]): binds

B2: MAb 63 (antibody, IgM, V domains shown)
VH: EVQVLESGGNLVQPGGSLRLSCAASGFTFSSYAMSWVRQAPGKGLEWVSSITGSGGSTYYADSVKGRFTISRDNSKNTLYLQMNSLRAEDTAIFYCAKDNRGFFHYWGQGTLVTVSS
VL: DIQMTQSPSSVSASVGDRVTITCRASQGISTWLAWYQHKPGKAPKLLIYVASSLQSGVPSRFSGSGSGTDFTLTISSLQPEDFATYYCQQANSFPFTFGPGTKVDIK
notes: Fully human antibody
binding result (human IL-4 receptor [1]): binds

B3: MAb 1B7 (antibody, V domains shown)
VH: EVQVLESGGNLVQPGGSLRLSCAASGFTFSSYAMSWVRQAPGKGLEWVSSITGSGGSTYYADSVKGRFTISRDNSKNTLYLQMNSLRAEDTAIFYCAKDNRGFFHYWGQGTLVTVSS
VL: EIVLTQSPSSVSASVGDRVTITCRASQGISNRLAWYQQKPGKAPKLLIYIASILQRGVPSRFSGSGSGTDFTLTITRLQPEDFATYYCQQANSFPFTFGPGTKVDIK
notes: Derived from MAb 63; differs from it only in the light chain; heavy chain identical to MAb 63
binding result (human IL-4 receptor [2]): binds

B4: MAb 5A1 (antibody, IgG1, V domains shown)
VH: EVQLVQSGGGLVHPGGSLRLTCAGSGFTFSNFVMHWVRQTPGQGLEWVSAIGTGGGTYYADSVKGRFTISRDNAKSSLYLQMNSLRAEDMAVYYCARDRPMVRGVIIDYFDYWGQGTLVTVSS
VL: EIVLTQSPATLSLSPGERATLSCRASQSVSSYLAWYQQKPGQAPRLLIYHASNRATGIPARFSGSGSGTDFTLTISSLEPEDFAVYYCQQRSNWPLTFGGGTKVEIK
notes: Fully human antibody
binding result (human IL-4 receptor [1]): binds

B5: MAb 12B5 (antibody, human IgG1, V domains shown)
VH: EVQLVQSGGGLVHPGGSLRLSCAGSGFTFSRNAMFWVRQAPGKGLEWVSGIGTGGATNYADSVKGRFTISRDNAKNSLYLQMNSLRAEDMAVYYCARGRYYFDYWGQGTLVTVSS
VL: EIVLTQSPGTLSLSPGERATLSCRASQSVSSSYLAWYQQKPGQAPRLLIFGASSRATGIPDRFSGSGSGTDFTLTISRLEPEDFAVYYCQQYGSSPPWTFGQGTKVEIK
notes: also called clone 12B5
binding result (human IL-4 receptor [3]): binds
